Results as given in US20250215105A1, “ANTI-CD39 ANTIBODY” (BrightPath Biotherapeutics Co., Ltd., priority 2022, published 2025).

Target: FcγRIIIa (Human) (UniProt P08637)
Assay: SPR

Chain of FcγRIIIa (Human) (P08637 17-208 F176V): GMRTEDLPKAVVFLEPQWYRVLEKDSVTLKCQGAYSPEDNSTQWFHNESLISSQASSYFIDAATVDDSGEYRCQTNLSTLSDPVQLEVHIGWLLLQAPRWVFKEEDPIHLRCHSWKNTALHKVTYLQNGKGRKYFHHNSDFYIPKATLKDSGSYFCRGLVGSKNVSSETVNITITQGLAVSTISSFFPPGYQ

Mogamulizumab
Kd: 156 nM
